Reference: patent US20140087995A1 (published 2014)
Numbered stars: 1 amine (or outer) side, 2 acyl side, 3 side chain; on linkers, the order of the positions; unused ones are H or OH. Bridge positions count the residues as written; N and C are the ends. Side chains are listed from the residue outwards. Ends that are not written are not given here. * marks the point of attachment. C20 diacid = O=C(O)CCCCCCCCCCCCCCCCCCC(=O)*; γGlu = O=C(O)[C@H](CCC(=O)[*:2])N[*:1]; AEEA = NCCOCCOCC(=O)O

T1: human amylin receptor (human, UniProt P30988 25-474; O60896 24-148, limits assumed)
T1 construct: whole, on cells; Used as cell membranes prepared from the Amylin 3(a)/CRE-luc BHK cells (Assay V); also called hAmylin-R; hAmylinR
T1 sequence (looked up) 1: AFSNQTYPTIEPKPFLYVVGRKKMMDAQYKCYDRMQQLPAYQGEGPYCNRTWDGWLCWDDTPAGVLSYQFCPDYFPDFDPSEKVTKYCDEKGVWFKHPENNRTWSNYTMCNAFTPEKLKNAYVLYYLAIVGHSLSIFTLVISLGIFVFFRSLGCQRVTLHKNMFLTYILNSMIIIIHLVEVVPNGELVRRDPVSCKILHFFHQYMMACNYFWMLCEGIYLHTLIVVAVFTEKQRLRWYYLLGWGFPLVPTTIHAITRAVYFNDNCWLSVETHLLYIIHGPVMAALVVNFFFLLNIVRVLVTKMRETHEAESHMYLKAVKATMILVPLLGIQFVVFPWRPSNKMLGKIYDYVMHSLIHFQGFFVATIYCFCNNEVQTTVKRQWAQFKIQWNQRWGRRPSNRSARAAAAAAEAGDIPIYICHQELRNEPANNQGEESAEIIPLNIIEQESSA
T1 sequence (looked up) 2: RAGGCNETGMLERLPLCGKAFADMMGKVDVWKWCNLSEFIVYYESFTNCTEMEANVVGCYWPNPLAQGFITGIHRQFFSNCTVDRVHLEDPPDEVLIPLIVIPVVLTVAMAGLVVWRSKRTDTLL

B1: N^ε1-[2-[2-[2-(19-carboxynonadecanoylamino)ethoxy]ethoxy]acetyl]-[Arg17,Pro21,Pro27]-h-amylin (peptide)
peptide: K([AEEA-C20 diacid])CNTATCATQRLANFLRHSSPNFGAIPSSTNVGSNTY-NH2
modifications: disulfide 2-7; N-terminus assumed
SMILES: CC[C@H](C)[C@H](NC(=O)[C@H](C)NC(=O)CNC(=O)[C@H](Cc1ccccc1)NC(=O)[C@H](CC(N)=O)NC(=O)[C@@H]1CCCN1C(=O)[C@H](CO)NC(=O)[C@H](CO)NC(=O)[C@H](Cc1c[nH]cn1)NC(=O)[C@H](CCCNC(=N)N)NC(=O)[C@H](CC(C)C)NC(=O)[C@H](Cc1ccccc1)NC(=O)[C@H](CC(N)=O)NC(=O)[C@H](C)NC(=O)[C@H](CC(C)C)NC(=O)[C@H](CCCNC(=N)N)NC(=O)[C@H](CCC(N)=O)NC(=O)[C@@H](NC(=O)[C@H](C)NC(=O)[C@@H]1CSSC[C@H](NC(=O)[C@@H](N)CCCCNC(=O)COCCOCCNC(=O)CCCCCCCCCCCCCCCCCCC(=O)O)C(=O)N[C@@H](CC(N)=O)C(=O)N[C@@H]([C@@H](C)O)C(=O)N[C@@H](C)C(=O)N[C@@H]([C@@H](C)O)C(=O)N1)[C@@H](C)O)C(=O)N1CCC[C@H]1C(=O)N[C@@H](CO)C(=O)N[C@@H](CO)C(=O)N[C@H](C(=O)N[C@@H](CC(N)=O)C(=O)N[C@H](C(=O)NCC(=O)N[C@@H](CO)C(=O)N[C@@H](CC(N)=O)C(=O)N[C@H](C(=O)N[C@@H](Cc1ccc(O)cc1)C(N)=O)[C@@H](C)O)C(C)C)[C@@H](C)O
notes: also called compound 43
B2: N^ε1-[(4S)-4-carboxy-4-[[(4S)-4-carboxy-4-(19-carboxynonadecanoylamino)butanoyl]amino]butanoyl]-[Glu14,Arg17,Pro21,Pro27,His34,Glu35]-h-amylin (peptide)
peptide: K([γGlu-γGlu-C20 diacid])CNTATCATQRLAEFLRHSSPNFGAIPSSTNVGHETY-NH2
modifications: disulfide 2-7; N-terminus assumed
SMILES: CC[C@H](C)[C@H](NC(=O)[C@H](C)NC(=O)CNC(=O)[C@H](Cc1ccccc1)NC(=O)[C@H](CC(N)=O)NC(=O)[C@@H]1CCCN1C(=O)[C@H](CO)NC(=O)[C@H](CO)NC(=O)[C@H](Cc1c[nH]cn1)NC(=O)[C@H](CCCNC(=N)N)NC(=O)[C@H](CC(C)C)NC(=O)[C@H](Cc1ccccc1)NC(=O)[C@H](CCC(=O)O)NC(=O)[C@H](C)NC(=O)[C@H](CC(C)C)NC(=O)[C@H](CCCNC(=N)N)NC(=O)[C@H](CCC(N)=O)NC(=O)[C@@H](NC(=O)[C@H](C)NC(=O)[C@@H]1CSSC[C@H](NC(=O)[C@@H](N)CCCCNC(=O)CC[C@H](NC(=O)CC[C@H](NC(=O)CCCCCCCCCCCCCCCCCCC(=O)O)C(=O)O)C(=O)O)C(=O)N[C@@H](CC(N)=O)C(=O)N[C@@H]([C@@H](C)O)C(=O)N[C@@H](C)C(=O)N[C@@H]([C@@H](C)O)C(=O)N1)[C@@H](C)O)C(=O)N1CCC[C@H]1C(=O)N[C@@H](CO)C(=O)N[C@@H](CO)C(=O)N[C@H](C(=O)N[C@@H](CC(N)=O)C(=O)N[C@H](C(=O)NCC(=O)N[C@@H](Cc1c[nH]cn1)C(=O)N[C@@H](CCC(=O)O)C(=O)N[C@H](C(=O)N[C@@H](Cc1ccc(O)cc1)C(N)=O)[C@@H](C)O)C(C)C)[C@@H](C)O
B3: N^ε1-[(4S)-4-carboxy-4-[[(4S)-4-carboxy-4-(19-carboxynonadecanoylamino)butanoyl]amino]butanoyl]-[Glu14,Arg17,Pro21,Pro27,Pro34,Glu35]-h-amylin (peptide)
peptide: K([γGlu-γGlu-C20 diacid])CNTATCATQRLAEFLRHSSPNFGAIPSSTNVGPETY-NH2
modifications: disulfide 2-7; N-terminus assumed
SMILES: CC[C@H](C)[C@H](NC(=O)[C@H](C)NC(=O)CNC(=O)[C@H](Cc1ccccc1)NC(=O)[C@H](CC(N)=O)NC(=O)[C@@H]1CCCN1C(=O)[C@H](CO)NC(=O)[C@H](CO)NC(=O)[C@H](Cc1c[nH]cn1)NC(=O)[C@H](CCCNC(=N)N)NC(=O)[C@H](CC(C)C)NC(=O)[C@H](Cc1ccccc1)NC(=O)[C@H](CCC(=O)O)NC(=O)[C@H](C)NC(=O)[C@H](CC(C)C)NC(=O)[C@H](CCCNC(=N)N)NC(=O)[C@H](CCC(N)=O)NC(=O)[C@@H](NC(=O)[C@H](C)NC(=O)[C@@H]1CSSC[C@H](NC(=O)[C@@H](N)CCCCNC(=O)CC[C@H](NC(=O)CC[C@H](NC(=O)CCCCCCCCCCCCCCCCCCC(=O)O)C(=O)O)C(=O)O)C(=O)N[C@@H](CC(N)=O)C(=O)N[C@@H]([C@@H](C)O)C(=O)N[C@@H](C)C(=O)N[C@@H]([C@@H](C)O)C(=O)N1)[C@@H](C)O)C(=O)N1CCC[C@H]1C(=O)N[C@@H](CO)C(=O)N[C@@H](CO)C(=O)N[C@H](C(=O)N[C@@H](CC(N)=O)C(=O)N[C@H](C(=O)NCC(=O)N1CCC[C@H]1C(=O)N[C@@H](CCC(=O)O)C(=O)N[C@H](C(=O)N[C@@H](Cc1ccc(O)cc1)C(N)=O)[C@@H](C)O)C(C)C)[C@@H](C)O
B4: N{Alpha-1}-[(4S)-4-carboxy-4-(19-carboxynonadecanoylamino)butanoyl]-[Glu14,Arg17,Pro21,Pro27,Lys34]-h-amylin (peptide)
peptide: {C20 diacid-γGlu}-KCNTATCATQRLAEFLRHSSPNFGAIPSSTNVGKNTY-NH2
modifications: disulfide 2-7
SMILES: CC[C@H](C)[C@H](NC(=O)[C@H](C)NC(=O)CNC(=O)[C@H](Cc1ccccc1)NC(=O)[C@H](CC(N)=O)NC(=O)[C@@H]1CCCN1C(=O)[C@H](CO)NC(=O)[C@H](CO)NC(=O)[C@H](Cc1c[nH]cn1)NC(=O)[C@H](CCCNC(=N)N)NC(=O)[C@H](CC(C)C)NC(=O)[C@H](Cc1ccccc1)NC(=O)[C@H](CCC(=O)O)NC(=O)[C@H](C)NC(=O)[C@H](CC(C)C)NC(=O)[C@H](CCCNC(=N)N)NC(=O)[C@H](CCC(N)=O)NC(=O)[C@@H](NC(=O)[C@H](C)NC(=O)[C@@H]1CSSC[C@H](NC(=O)[C@H](CCCCN)NC(=O)CC[C@H](NC(=O)CCCCCCCCCCCCCCCCCCC(=O)O)C(=O)O)C(=O)N[C@@H](CC(N)=O)C(=O)N[C@@H]([C@@H](C)O)C(=O)N[C@@H](C)C(=O)N[C@@H]([C@@H](C)O)C(=O)N1)[C@@H](C)O)C(=O)N1CCC[C@H]1C(=O)N[C@@H](CO)C(=O)N[C@@H](CO)C(=O)N[C@H](C(=O)N[C@@H](CC(N)=O)C(=O)N[C@H](C(=O)NCC(=O)N[C@@H](CCCCN)C(=O)N[C@@H](CC(N)=O)C(=O)N[C@H](C(=O)N[C@@H](Cc1ccc(O)cc1)C(N)=O)[C@@H](C)O)C(C)C)[C@@H](C)O
notes: also called compound 36
B5: N^-1-[(4S)-4-carboxy-4-(19-carboxynonadecanoylamino)butanoyl]-Gly[Arg1,Arg17,Pro21,Pro27]-h-amylin (peptide)
peptide: {C20 diacid-γGlu}-GRCNTATCATQRLANFLRHSSPNFGAIPSSTNVGSNTY-NH2
modifications: disulfide 3-8
SMILES: CC[C@H](C)[C@H](NC(=O)[C@H](C)NC(=O)CNC(=O)[C@H](Cc1ccccc1)NC(=O)[C@H](CC(N)=O)NC(=O)[C@@H]1CCCN1C(=O)[C@H](CO)NC(=O)[C@H](CO)NC(=O)[C@H](Cc1c[nH]cn1)NC(=O)[C@H](CCCNC(=N)N)NC(=O)[C@H](CC(C)C)NC(=O)[C@H](Cc1ccccc1)NC(=O)[C@H](CC(N)=O)NC(=O)[C@H](C)NC(=O)[C@H](CC(C)C)NC(=O)[C@H](CCCNC(=N)N)NC(=O)[C@H](CCC(N)=O)NC(=O)[C@@H](NC(=O)[C@H](C)NC(=O)[C@@H]1CSSC[C@H](NC(=O)[C@H](CCCNC(=N)N)NC(=O)CNC(=O)CC[C@H](NC(=O)CCCCCCCCCCCCCCCCCCC(=O)O)C(=O)O)C(=O)N[C@@H](CC(N)=O)C(=O)N[C@@H]([C@@H](C)O)C(=O)N[C@@H](C)C(=O)N[C@@H]([C@@H](C)O)C(=O)N1)[C@@H](C)O)C(=O)N1CCC[C@H]1C(=O)N[C@@H](CO)C(=O)N[C@@H](CO)C(=O)N[C@H](C(=O)N[C@@H](CC(N)=O)C(=O)N[C@H](C(=O)NCC(=O)N[C@@H](CO)C(=O)N[C@@H](CC(N)=O)C(=O)N[C@H](C(=O)N[C@@H](Cc1ccc(O)cc1)C(N)=O)[C@@H](C)O)C(C)C)[C@@H](C)O
notes: also called compound 46
B6: N^ε1-[2-[2-[2-[[(4S)-4-carboxy-4-(19-carboxynonadecanoylamino)butanoyl]amino]ethoxy]ethoxy]acetyl]-[Arg17,Pro21,Pro27]-h-amylin (peptide)
peptide: K([AEEA-γGlu-C20 diacid])CNTATCATQRLANFLRHSSPNFGAIPSSTNVGSNTY-NH2
modifications: disulfide 2-7; N-terminus assumed
SMILES: CC[C@H](C)[C@H](NC(=O)[C@H](C)NC(=O)CNC(=O)[C@H](Cc1ccccc1)NC(=O)[C@H](CC(N)=O)NC(=O)[C@@H]1CCCN1C(=O)[C@H](CO)NC(=O)[C@H](CO)NC(=O)[C@H](Cc1c[nH]cn1)NC(=O)[C@H](CCCNC(=N)N)NC(=O)[C@H](CC(C)C)NC(=O)[C@H](Cc1ccccc1)NC(=O)[C@H](CC(N)=O)NC(=O)[C@H](C)NC(=O)[C@H](CC(C)C)NC(=O)[C@H](CCCNC(=N)N)NC(=O)[C@H](CCC(N)=O)NC(=O)[C@@H](NC(=O)[C@H](C)NC(=O)[C@@H]1CSSC[C@H](NC(=O)[C@@H](N)CCCCNC(=O)COCCOCCNC(=O)CC[C@H](NC(=O)CCCCCCCCCCCCCCCCCCC(=O)O)C(=O)O)C(=O)N[C@@H](CC(N)=O)C(=O)N[C@@H]([C@@H](C)O)C(=O)N[C@@H](C)C(=O)N[C@@H]([C@@H](C)O)C(=O)N1)[C@@H](C)O)C(=O)N1CCC[C@H]1C(=O)N[C@@H](CO)C(=O)N[C@@H](CO)C(=O)N[C@H](C(=O)N[C@@H](CC(N)=O)C(=O)N[C@H](C(=O)NCC(=O)N[C@@H](CO)C(=O)N[C@@H](CC(N)=O)C(=O)N[C@H](C(=O)N[C@@H](Cc1ccc(O)cc1)C(N)=O)[C@@H](C)O)C(C)C)[C@@H](C)O
notes: also called compound 41

Target: T1, human amylin receptor
Experiment: SPA competition vs 125I-rat amylin, membranes of amylin 3(a) receptor BHK cells (Assay V)
Summary of the method: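 One-site competition analysis of SPA counts yielded IC₅₀ as a measure of affinity. Membranes were at 35 ng/μL final; incubation was 120 min at 25° C, pH 7.4.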

IC50 | Binder
0.076 nM | B1
0.525 nM | B2
0.121 nM | B3
0.403 nM | B4
0.195 nM | B5
0.427 nM | B6
